{"source": "paper doi:10.1101/2021.08.24.457465", "key": {"ToPif1 (wild type) [1]": {"molecular_target": "T1, ToPif1 (wild type) (Thermus oshimai, UniProt K7RJ88 64-507)", "T1 sequence": "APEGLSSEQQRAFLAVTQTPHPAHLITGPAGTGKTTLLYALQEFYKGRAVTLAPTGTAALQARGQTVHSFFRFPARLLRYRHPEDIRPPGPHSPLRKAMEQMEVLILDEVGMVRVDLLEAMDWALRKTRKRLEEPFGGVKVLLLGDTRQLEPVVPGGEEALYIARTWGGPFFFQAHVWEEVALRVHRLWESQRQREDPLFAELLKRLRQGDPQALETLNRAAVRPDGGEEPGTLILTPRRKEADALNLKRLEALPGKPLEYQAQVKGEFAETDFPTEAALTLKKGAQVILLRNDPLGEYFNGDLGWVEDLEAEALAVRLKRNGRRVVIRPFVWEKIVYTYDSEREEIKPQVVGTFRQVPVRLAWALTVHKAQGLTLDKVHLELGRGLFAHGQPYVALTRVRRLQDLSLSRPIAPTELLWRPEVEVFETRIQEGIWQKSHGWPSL", "experiment": "fluorescence anisotropy"}, "ToPif1 (wild type) [2]": {"molecular_target": "T1, ToPif1 (wild type)", "experiment": "fluorescence anisotropy", "remark": "listed apart in the source"}, "ToPif1 (wild type) [3]": {"molecular_target": "T1, ToPif1 (wild type)", "experiment": "fluorescence anisotropy", "remark": "listed apart in the source"}, "ToPif1 (wild type) [4]": {"molecular_target": "T1, ToPif1 (wild type)", "experiment": "fluorescence anisotropy", "remark": "listed apart in the source"}, "[5]": {"molecular_target": "T2, ToPif1 (wild type), crystal (Thermus oshimai, UniProt K7RJ88 64-507)", "T2 sequence": "T1 sequence", "experiment": "X-ray crystallography"}}, "note": "Like-named read-outs stand apart in the source and are kept apart here."}
{"binder": "TTTTTTTTTTTT (ssDNA)", "note": "[T12]", "values": [{"measurement": "Kd", "setting": "ToPif1 (wild type) [1]", "result": "26.5 ± 0.71", "unit": "nM"}, {"measurement": "Kd", "setting": "ToPif1 (wild type) [2]", "result": "29.1 ± 0.53", "unit": "nM"}, {"measurement": "Kd", "setting": "ToPif1 (wild type) [3]", "result": "~29.1", "unit": "nM"}]}
{"binder": "AGGGTGGGTGGGTGGG (structured_DNA)", "note": "[G4CEB]", "values": [{"measurement": "Kd", "setting": "ToPif1 (wild type) [4]", "result": "30.9 ± 2.32", "unit": "nM"}, {"measurement": "Kd", "setting": "ToPif1 (wild type) [2]", "result": "30.3 ± 1.17", "unit": "nM"}, {"measurement": "Kd", "setting": "ToPif1 (wild type) [3]", "result": "~23.3", "unit": "nM"}]}
{"binder": "TTTTTTGGGTGGGTGGGTGGGTTTTTTTT (structured_DNA)", "note": "[G4T6/T8]", "values": [{"measurement": "binding result", "setting": "[5]", "result": "binds"}]}
{"binder": "GGGTTAGGGTTAGGGTTAGGG (structured_DNA)", "note": "[G4Tel]", "values": [{"measurement": "Kd", "setting": "ToPif1 (wild type) [3]", "result": "~29.6", "unit": "nM"}]}
